Results on one substance are retold here after PMC9104065.

The assay has as its target Wisteria floribunda agglutinin (Wisteria floribunda). Briefly: automated chemiluminescent enzyme immunoassay (CLEIA, HISCL); IgA1 standards captured on WFA-conjugated magnetic beads, detected with alkaline-phosphatase-labelled anti-IgA1 mAb; 42 °C.

In the case of “polymeric IgA1 standard cross linked with glutaraldehyde, with sialidase digestion”, the CLEIA count, fold over nIgA1 not treated with sialidase is 700 fold.
